The RNAGym collection of RNA variant scans (doi:10.1073/pnas.2313332121)
Fewer inactive variants are shown than the library holds.

B1: TPR 5TU (parent)
chain: GGAUCUUCUCGAUCUAACAAAAAAGACAAAUCUGCCACAAAGCUUGAGAGCAUCUUCGGAUGCAGAGGCGGCAGCCUUCGGUGGCGCGAUAGCGCCAACGUUCUCAACUAUGACACGCAAAACGCGUGCUCCGUUGAAUGGAGUUUAUCAUG

Variants of: B1
Assay: polymerase ribozyme fitness, log enrichment relative to wild type (log ratio); higher = more active; in vitro selection for triplet polymerase activity
How it was run: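 Mutant libraries were PCR-built and transcribed for each subunit of a heterodimeric triplet polymerase ribozyme and selected for one round in triplicate at −7 °C, frozen, before gel excision of extended constructs and streptavidin-bead capture. Input and output libraries were Illumina-sequenced, keeping genotypes with ≥10 input reads and ≥1 read per output. Fitness is a logarithmic ratio of genotype to wild-type enrichment, in base 2, using inverse-variance-weighted replicate averages.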

| Variant | polymerase ribozyme fitness (log ratio) |
| --- | --- |
| G11U G42C A47C G74A C96G C105U G140A | ≤ -4.2 |
| U9C G58C A91G C105G A110G | ≤ -4.2 |
| C10U U53A C54U U55A C75G C105U G143U U145C U148A | ≤ -4.2 |
| G11U G50U G68A G84U C114U A115U G136A | ≤ -4.2 |
| G11U A28U C43U C87A C99G G126A | -4.16 |
| C10U A52U A60C G88U | ≤ -4.2 |
| C10G A52G U56A C96U G140U | ≤ -4.2 |
| C10G C69G | -4.16 |
| G11C U53A C72G C79A U82A U90G A106C | ≤ -4.2 |
| C10G A26C C75A G84A | ≤ -4.2 |
| G11C C32U C69A A121G | -4.12 |
| U9C A40C U56A C96G U101C U134C | ≤ -4.2 |
| C10G A37U U55A G94A C95G G140C | ≤ -4.2 |
| G11C C38U C76U U78G A97G G124U | ≤ -4.2 |
| U9C C54A C87G U134A | ≤ -4.2 |
| G11A A23U A66C G92A C114U C125A | ≤ -4.2 |
| U9G A12U A19U A21U G58A C76U G84A A106U | ≤ -4.2 |
| U9G A17G A52U C75G G84A C105U | ≤ -4.2 |
| G11A A30C C99A C118U U145G | ≤ -4.2 |
| C10U U45G A60C C85U | ≤ -4.2 |
| G11U C38U G58C C96U A98G | -1.45 |

| Variant | polymerase ribozyme fitness (log ratio) |
| --- | --- |
| U9C A24C A40C C93A C105G G141C | ≤ -4.2 |
| C10A C93G | ≤ -4.2 |
| G11A U55A A73G | -1.2 |
| G11U G84A U90C A119G C125A | ≤ -4.2 |
| U9G U33A C36A C63U C79G C118A U135A | ≤ -4.2 |
| C10G C69G G83C | ≤ -4.2 |
| C10G C27A U82C G83A A91U | ≤ -4.2 |
| G11C C54U C85U A115G | -3.49 |
| C10U C87U | -2.87 |
| G11A A89G G94A C105G G112C | ≤ -4.2 |
| G11A C14U U61A G80C C85G C96U A98G C108A | ≤ -4.2 |
| U9G C10U U77G G83A A110G | ≤ -4.2 |
| G11A C32A C93U | ≤ -4.2 |
| C10G G84A | -3.26 |
| C10A U13G G25C G34U U61A C63U G68C U77C C79A G86A | ≤ -4.2 |
| C10U U15A G50C C76U C85A | ≤ -4.2 |
| C10A C14U A26U A30G G84A U139G A142U | ≤ -4.2 |
| G11A U55A U77G G83C A142U | ≤ -4.2 |
| C10U A20U C57A U145C | -3.45 |
| U9C C18U G71C U82A C85G U146G A150C | ≤ -4.2 |
| U9G C96U A97G C103G A115U U127A | ≤ -4.2 |

| Variant | polymerase ribozyme fitness (log ratio) |
| --- | --- |
| C10G A89G C103U U134G G141A U151A | ≤ -4.2 |
| C10G A37C G50A C95U C99A G143C | ≤ -4.2 |
| C10A C32G C38U U56G A60G C95A C131U G140U | -4.19 |
| G11C U55A C76G G140U | ≤ -4.2 |
| G11A G46U G92A C118U | ≤ -4.2 |
| G11A G94U A150U | -0.735 |
| C10G C85G G92A C125G | ≤ -4.2 |
| C10G C14U G50C C54A C76G C105G | ≤ -4.2 |
| C10U C54U G71U C85A C96G G133C U145G G152A | ≤ -4.2 |
| C10A C87U | -3.47 |
| C10G U56A A89U C99U G112C U145G | ≤ -4.2 |
| C10G C85U | -3 |
| G11U C14G G46A U55A C87U | ≤ -4.2 |
| C10G A40C U78G G84U G88U G141U | ≤ -4.2 |
| C10U A23U U33G C96G A115C | ≤ -4.2 |
| G11A C27U A49G C96A C118U U145A | -4.19 |
| C10U C93U | -4.06 |
| C10G A73G G92U | ≤ -4.2 |
| G11A G86A | -2.24 |
| C10U A39G U102C | ≤ -4.2 |
| U9G A47G | -3.86 |

| Variant | polymerase ribozyme fitness (log ratio) |
| --- | --- |
| G11C A41C C95A U146G | -3.34 |
| G11U C14G A20G C27G A52U G80A A120U G141U U144G | ≤ -4.2 |
| G11A A49G A60U | -2.63 |
| C10U U135A G141A C149G | ≤ -4.2 |
| U9C A40C U45A G65C C85A U111G A113U C118G | ≤ -4.2 |
| C10U G84U | -4.13 |
| U9A C38A C72A G84A C125U | ≤ -4.2 |
| C10G C93U | -3.86 |
| U9G U31G G83C C99U U144G | ≤ -4.2 |
| U9C C93A | ≤ -4.2 |
| G11U G42A G50A C54A C95U G124A | ≤ -4.2 |
| G11C A23U G50C C54G C57U A89G C116A G124C U139A | ≤ -4.2 |
| G11A G84A C85U G88A C99A C131G U139C | ≤ -4.2 |
| U9C C43G G65A G67C C95A | -4.09 |
| G11U A16U A52C G58C G65A C79A G83U C93U C118A | ≤ -4.2 |
| C10G A64C C76A G92C U135A A138G U151G | ≤ -4.2 |
| C10U A28U A52G U56A A73C C93U U145C C149G | ≤ -4.2 |
| G11U A47C G50U C57G A64U C76G | ≤ -4.2 |
| G11A C51U G81C G92A U151A | ≤ -4.2 |
| C10G A52G C54U G58C C79A C95U | -3.91 |
| C10U A39G G42U G59A A60C C63U A91U C105U A115C A142C | ≤ -4.2 |
